Assay [1] is described as follows: Leptin sensitivity study in mice. The assay is classed as in vivo, mouse. The conditions noted are these: for food intake: after administration of leptin. The method, then:
To determine leptin sensitivity, 9- to 13-week-old mice, matched for similar body weight at both day 4 and day 0, were individually caged and body weight and food intake were measured once daily (5:30 pm) throughout the experiment. For the first 7 days, mice were injected intraperitoneally twice daily (12:00 pm and 6:00 pm) with PBS to establish a baseline of weight change and food intake. […] Body weight and food intake was measured once a day during the experiment.

In assay [2] the test system is hypothalamic POMC and NPY mRNA. Nature of the assay: Leptin treatment, hypothalamic POMC and NPY mRNA by real-time PCR. The assay is classed as in vivo, mouse. The conditions noted are these: for weight loss: leptin 0.5 μg/g body weight. The method, then: Mice in the 8-12 week of age allowed free access to chow and water were intraperitoneally injection for 3 days with either PBS or recombinant mouse leptin (Sigma) at a dose of 0.5 μg/g body weight twice a daily (9:00 am and 7:00 pm). Hypothalamus was isolated from the mice at 6 hr after leptin treatment and snap-frozen. Total hypothalamic RNA was isolated using Trizol (Invitrogen) according to the manufacturer's instructions. Total RNA was treated with ribonuclease-free deoxyribonuclease (DNase) I for 30 min using a commercially available kit (Invitrogen) to eliminate contamination of genomic DNA. The RNA samples were reverse transcribed with TaqMan Reverse Transcription Reagents (Applied Biosystems, Foster City, Calif.) and subjected to automated fluorescent RT-PCR on an ABI PRISM 7700 Sequence Detection System (Applied Biosystems). All TaqMan probes were labeled with the reporter fluorescein at the 5′-end and with the quencher tetramethylrhodamine at the 3′-end. The following oligonucleotides derived form the mouse POMC and NPY were synthesized and used as primers and probes for Real-time PCR: POMC (sense, 5′-[…]-3′ (SEQ ID NO:42), antisense, 5′-[…]-3′ (SEQ ID NO:43), probe, 5′-6FAM-[…]-TAMRA-3′, SEQ ID NO:44); NPY (sense, 5′-[…]-3′ (SEQ ID NO:45), antisense, 5′-[…]-3′ (SEQ ID NO:46) probes, 5′-6FAM-[…]-TAMRA-3′ (SEQ ID NO:47)). TaqMan Rodent GAPDH Control Reagents (Applied Biosystems) were used as a control primers and probe for each template. Each predicted RT-PCR product spanned an intron/exon junction. The reactions were incubated for 2 min at 50° C., followed by 10 min at 95° C., and then 40 cycles of 15 sec at 95° C. and 1 min at 60° C. Each RT-PCR reaction was performed in triplicate in a final volume of 20 μl and assessed by the comparative Ct (ΔΔCt) method (Applied Biosystems, ABI Prism 7700 Users Bulletin #2).
A general note: In qPCR the cycle at which signal appears reflects the starting amount.

The next assay has as its system Stat3. Nature of the assay: Leptin-stimulated Stat3 immunoprecipitation and immunoblotting (methylation, PRMT-2 association). The assay is classed as cell-based, mouse. The conditions noted are these: leptin 100 nM. As for the experimental part: Immunoprecipitation of STAT3 was performed as follows. Cells treated with or without 100 nM mouse leptin for selected times were washed with phosphate buffered saline and lysed in Nonidet P-40 (NP-40) buffer (20 mM Tris-HCl, pH 8.0, 150 mM NaCl, 25 mM EDTA, 1.0% Triton-X, 0.1% SDS, 10% glycerol, 100 mM NaF, 100 mM Na3P2O7, 1.0% deoxycholic acid, 1 mM Na3VO4, 1× protease inhibitors cocktail; Roche Diagnostic Corp., Indianapolis, Ind.) or RIPA buffer (50 mM Tris-HCl, pH 8.0, 150 mM NaCl, 1% NP-40, 0.5% Na-deoxycholate, 0.1% SDS, 1× protease inhibitors cocktail). After the lysates were incubated to solubilize proteins for 30 min at 4° C., and before they were centrifuged at 15,000 rpm for 10 min at 4° C., the supernatants were rocked with either polyclonal anti-STAT3 antibodies (1:2,000) or monoclonal anti-Flag antibodies for 14 hr at 4° C., and then with protein G agarose for 3 hr at 4° C. For in vitro stimulation, the supernatants from extracted tissue homogenates were rocked with 2 μg polyclonal anti-IRS-1 antibody, and then protein G agarose for 3 hr at 4° C. The beads were washed three times with lysis buffer without proteinase inhibitors, solubilized in 15 μl 3×SDS-polyacrylamide gel electrophoresis (PAGE) buffer (187.5 mM Tris-HCl, 6% SDS, 30% glycerol, 150 mM dithiothreitol, 0.3% bromophenol blue, pH6.8), and subjected to the immunoblotting.
Immunoblotting was performed by boiling samples for 5 min at 95° C. followed by centrifugation for 1 min at 4° C. Aliquots of the supernatant were subjected to 7.5, 10% or 4-15% SDS-PAGE. Proteins in the gel were transferred to a nitrocellulose membrane by electroblotting. The membranes were treated with either anti-pTyr, anti-STAT3, anti-phospho STAT3, anti-α-metR, anti-IRS-1, anti-Flag, anti-phospho IRS-1, anti-arginine (mono- and di-methyl), or anti-β-actin antibodies followed by incubation with secondary antibodies conjugated with HRP. Immunoreactive proteins were detected either by ECL or by ECL plus system (Amersham Pharmacia Biotech). In some cases, bands were quantified using the NIH Image software (Image J version 1.2; National Institutes of Health, Bethesda, Md.). The figures are representative of 3 experiments.
Background: A western blot detects proteins with antibodies after separation by electrophoresis.

For the next assay, the system named is hypothalamic Stat3. Nature of the assay: Phospho-Stat3 immunohistochemistry of hypothalamus after leptin. It is filed as in vivo, mouse. The conditions noted are these: wild-type mice, leptin 1.67 μg/g body weight peripheral. The method, then: After overnight fasting, brains of wild-type and PRMT2−/− mice treated with or without mouse leptin (1.67 μg/g body weight) for 90 min were removed immediately after decapitation, frozen in 2-methylbutane with a bed of crushed dry ice for 6 sec. 16-μm thick coronal sections were cut on a cryostat at −20° C. and were thaw-mounted on slides (K•D Medical Inc., Columbia, Md.). Sections were fixed with acetone for 10 min at 4° C. and then incubated in methanol for 30 min at −20° C. After treatment with 0.3% H2O2 in methanol for 30 min at room temperature to block endogenous peroxidase, sections were blocked in Tris-buffered saline (TBS)-Ca (100 mM Tris-HCl, pH 7.4, 150 mM NaCl, 1 mM CaCl2) containing 10% normal goat serum and 3% bovine serum albumin (BSA) and incubated with a rabbit anti-pStat3 (pY705) diluted in the same blocking solution as previously described above overnight at 4° C. On the next day sections were washed three time with TBS-Ca, incubated with a biotinylated secondary goat antibody in TBS-Ca containing 1% BSA for 1 hr at room temperature and then treated with ABC solution (Vector laboratories, Inc., Burlingame, Calif.) for 1 hr. In a final step, the signal was developed by DAB solution (Vector laboratories), giving a brown precipitate, dehydrated and mounted using Permount (Sigma-Aldrich). […]

The target in another assay is T1, GST-Stat3 (Mus musculus, UniProt P42227).
T1 construct: The same region with the Arg31→Ala mutant was generated from the wild-type pGEX6P-3 STAT3 construct; made in house; host or cells: E. coli (BL21 (DE3); Top10 One Shot)
Nature of the assay: In vitro methylation assay of GST-Stat3. The assay is classed as biochemical. The conditions noted are these: Flag fusion protein from transfected HEK293 cells, [3H]-AdoMet. As for the experimental part: 293 cells were transiently transfected with expression vectors encoding Flag-tagged wild-type or mutant mouse PRMT2. After incubation for 48 hr, cells were lysed with 500 μl of RIPA buffer and 1.8 mg of 293 cell lysates was incubated with 40 μl of Anti-Flag M2 Affinity Gel (Sigma) for 3 hr at 4° C. Immune complexes were washed three times with lysis buffer without proteinase inhibitor and subjected to in vitro methylation reaction. Mouse fibroblasts were grown to 80% confluence on a 10 cm plate. Cells were washed and scraped off the plate into 500 μl of PBS (pH 7.4), and were lysed by sonication. After centrifugation at 15,000 rpm for 10 min at 4° C., the supernatants were used as the enzyme source. In vitro methylation reactions were performed by adding the immune complexes or cell lysates to 0.64 μg Histone and/or 1 μg of GST, GST-STAT3 or GST-STAT3 Arg31→Ala31 using 2 μCi of the methyl donor S-adenosyl-1[methyl-3H]methionine ([3H]-AdoMet) (Amersham Biosciences) in a final volume of 35 μl. The reactions were incubated for 1 hr at 4° C. and were terminated by addition of 3×SDS-loading buffer. […]

T1 sequence (P42227 1-131 limits assumed): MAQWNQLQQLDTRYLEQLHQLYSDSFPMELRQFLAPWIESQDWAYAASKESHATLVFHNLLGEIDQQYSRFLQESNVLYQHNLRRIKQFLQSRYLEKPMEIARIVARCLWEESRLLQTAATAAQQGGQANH

B1: leptin: recombinant mouse leptin (Sigma-Aldrich Inc.) (protein, UniProt P41160 22-167, looked up)
Leptin: VPIQKVQDDTKTLIKTIVTRINDISHTQSVSAKQRVTGLDFIPGLHPILSLSKMDQTLAVYQQVLTSLPSQNVLQIANDLENLRDLLHLLAFSKSCSLPQTSGLQKPESLDGVLEASLYSTEVVALSRLQGSLQDILQQLDVSPEC
Regarding B1, the food intake in assay [1] (PRMT2−/− mice) was approximately 92%; in assay [1] (wild-type mice) it was “did not alter food intake”. The “weight change” value in assay [1] (PRMT2−/− mice, leptin 0.1 μg/g) was “continuously lost weight for the duration of the study”; in assay [1] (wild-type mice, leptin 0.1 μg/g peripheral injection, for 5 days), -0.158 g. In addition, in assay [2] (PRMT2−/− mice, leptin 0.5 μg/g), the “higher level of hypothalamic POMC mRNA compared with leptin-treated wild-type mice” value was approximately 90%. Moreover, the “hypothalamic NPY mRNA expression” value in assay [2] (PRMT2−/− mice, leptin 0.5 μg/g) is on record as “significantly reduced”. The weight loss in assay [2] (PRMT2−/− mice) was -1.0 ± 0.2 g; in assay [2] (wild-type mice), -0.59 ± 0.29 g. Moreover, the “increase of hypothalamic POMC mRNA compared with untreated mice” value in assay [2] (wild-type mice, leptin 0.5 μg/g) is on record as approximately 53%. Moreover, in the assay on Stat3 (GT1-7 cells), the “PRMT-2 co-precipitated with STAT3” value was “enhanced that amount PRMT-2 that co-precipitated with STAT3”. For the same molecule, the Stat3 methylation result with Stat3 (GT1-7 cells) was “remarkably increased at 5 min and sustained for 60 min”; in the assay with Stat3 (PRMT2−/− VSMC), “increased Stat3 methylation was not observed”; in the assay with Stat3 (wild-type VSMC), “evoked a transient methylation of Stat3 at 10 min”. In the assay on hypothalamic Stat3, the “time of peak tyrosine phosphorylation of hypothalamic Stat3” value worked out at 45 min.

B2: PRMT2-Flag: Flag-tagged wild-type mouse PRMT2 fusion protein purified from transfected HEK293 cells (protein)
chain: MEAPGEGPCSESQVIPVLEEDPVDYGCEMQLLQDGAQLQLQLQPEEFVAIADYTATDETQLSFLRGEKILILRQTTADWWWGERAGCCGYIPANHLGKQLEEYDPEDTWQDEEYFDSYGTLKLHLEMLADQPRTTKYHSVILQNKESLKDKVILDVGCGTGIISLFCAHHARPKAVYAVEASDMAQHTSQLVLQNGFADTITVFQQKVEDVVLPEKVDVLVSEWMGTCLLFEFMIESILYARDTWLKGDGIIWPTTAALHLVPCSAEKDYHSKVLFWDNAYEFNLSALKSLAIKEFFSRPKSNHILKPEDCLSEPCTILQLDMRTVQVPDLETMRGELRFDIQKAGTLHGFTAWFSVYFQSLEEGQPQQVVSTGPLHPTTHWKQTLFMMDDPVPVHTGDVVHGFCCVTKKSGMEKAHVCLSELGCHVRTRSHVSTELETGSFRSGGDS
modifications: left off: small tags and cut ends
notes: Flag-tagged wild-type mouse PRMT2 fusion protein purified from transfected HEK293 cells
As to B2, the “methylation of GST-Stat3” value in the assay with GST-Stat3 is on record as “could methylate GST-Stat3”.

The values are drawn from patent US20060239990A1, “Protein Arginine N-Methyltransferase 2 (PRMT-2)” (priority 2003, published 2006).
